Measurements: patent publication US20220177576A1 (DENALI THERAPEUTICS, published 2022)

T1: human TREM2 expressed on HEK293-H6 cells (human, UniProt Q9NZC2 19-230)
T1 construct: Wild type human TREM2 stably co-expressed with DAP12 in HEK 293 cells (clone HEK293-H6); also called Human TREM2 HEK; TREM2 expressed by HEK293-H6 cells
T1 sequence: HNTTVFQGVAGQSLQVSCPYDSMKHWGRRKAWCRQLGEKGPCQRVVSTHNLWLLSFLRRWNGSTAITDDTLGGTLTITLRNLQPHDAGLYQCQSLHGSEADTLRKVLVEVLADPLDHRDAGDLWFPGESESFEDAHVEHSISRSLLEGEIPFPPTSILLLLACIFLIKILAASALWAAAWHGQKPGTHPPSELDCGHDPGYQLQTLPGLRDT

T2: recombinant human TREM2 ECD (human, UniProt Q9NZC2 19-172)
T2 construct: TREM2' / 'TREM2 ECD'; also called hTREM2; Human TREM2 (Biacore)
T2 sequence: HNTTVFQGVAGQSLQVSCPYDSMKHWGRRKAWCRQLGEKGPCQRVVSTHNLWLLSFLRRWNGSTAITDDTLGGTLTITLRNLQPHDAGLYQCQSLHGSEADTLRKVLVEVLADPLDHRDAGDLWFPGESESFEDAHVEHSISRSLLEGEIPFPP

T3: recombinant cynomolgus TREM2 ECD (cynomolgus, UniProt A0A2K5UY34 49-204)
T3 construct: extracellular domain; also called Cyno TREM2
T3 sequence: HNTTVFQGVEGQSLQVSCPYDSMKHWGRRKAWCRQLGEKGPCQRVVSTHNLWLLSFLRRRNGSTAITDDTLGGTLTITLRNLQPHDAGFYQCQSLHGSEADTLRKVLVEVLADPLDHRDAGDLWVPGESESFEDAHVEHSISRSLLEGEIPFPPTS


Columns and labels:
[1] = target: T1, human TREM2 expressed on HEK293-H6 cells; assay: flow cytometry on human TREM2-expressing HEK cells
Experimental: After incubation, the cells were centrifuged and washed in FACS buffer (PBS+0.5% BSA) twice. Mixed cells were resuspended in FACS buffer with human Trustain FcX solution (Biolegend, Catalog No. 422302) at a density of 10⁶/mL per cell line. The mixed cell lines were seeded at 200,000 cells per well in a 96-well round-bottom plate and incubated for 20 minutes at room temperature. After incubation, the cells were centrifuged and incubated with a dose titration of anti-TREM2 antibodies for 45 minutes on ice. After incubation, the cells were centrifuged and washed with FACS buffer three times. The cells were then incubated with secondary antibody (Alexa Fluor 647 AffiniPure F(ab′)2 Fragment Goat Anti-human IgG(H+L), Jackson ImmunoResearch Laboratories, Catalog No. 109-606-088, 1:800 dilution) for 30 minutes on ice. After incubation, the cells were washed with FACS buffer three times, resuspended in 100 μL of FACS buffer, and analyzed by flow cytometry (BD FACSCanto II, San Jose, Calif.), for which 30,000 events were obtained for each sample. Mean fluorescence intensity per cells were calculated by FlowJo software and used for generating dose response binding curve.

[2] = target: T2, recombinant human TREM2 ECD; assay: SPR (Biacore), antibody captured by anti-human Fab, TREM2 ECD as analyte
Experimental: (§1) Surface plasmon resonance (Biacore™ 8K instrument) was used to measure anti-TREM2 antibody affinities for human and cynomolgus TREM2 ECD. Anti-TREM2 antibodies were captured using Human Fab Capture Kit (GE Healthcare Life Sciences, Catalog No. 28958325) on a Biacore Series S CM5 sensor chip (GE Healthcare Life Sciences, Catalog No. 29149604). Serial 3-fold dilutions of recombinant human or cynomolgus TREM2 were injected at a flow rate of 30 μL/min. Antibody binding was monitored for 300 seconds, followed by monitoring of antibody dissociation for 600+ seconds in HBS-EP+ running buffer (GE Healthcare Life Sciences, Catalog No. BR100669). The binding response was corrected by subtracting the RU value from a blank flow cell. A 1:1 Languir model of simultaneous fitting of kₒₙ and koff was used for kinetics analysis. KD binding values were calculated from kₒₙ and koff.

[3] = target: T3, recombinant cynomolgus TREM2 ECD; assay: SPR (Biacore), antibody captured by anti-human Fab, cyno TREM2 ECD as analyte
Experimental: as §1

[4] = target: T4, human transferrin receptor (human, UniProt P02786 89-760, limits assumed); assay: SPR (Biacore), antibody captured by anti-human Fab on CM5 chip, human TfR as analyte, 1:1 model
T4 construct: also called Human TfR; TfR
T4 sequence (P02786 89-760 limits assumed): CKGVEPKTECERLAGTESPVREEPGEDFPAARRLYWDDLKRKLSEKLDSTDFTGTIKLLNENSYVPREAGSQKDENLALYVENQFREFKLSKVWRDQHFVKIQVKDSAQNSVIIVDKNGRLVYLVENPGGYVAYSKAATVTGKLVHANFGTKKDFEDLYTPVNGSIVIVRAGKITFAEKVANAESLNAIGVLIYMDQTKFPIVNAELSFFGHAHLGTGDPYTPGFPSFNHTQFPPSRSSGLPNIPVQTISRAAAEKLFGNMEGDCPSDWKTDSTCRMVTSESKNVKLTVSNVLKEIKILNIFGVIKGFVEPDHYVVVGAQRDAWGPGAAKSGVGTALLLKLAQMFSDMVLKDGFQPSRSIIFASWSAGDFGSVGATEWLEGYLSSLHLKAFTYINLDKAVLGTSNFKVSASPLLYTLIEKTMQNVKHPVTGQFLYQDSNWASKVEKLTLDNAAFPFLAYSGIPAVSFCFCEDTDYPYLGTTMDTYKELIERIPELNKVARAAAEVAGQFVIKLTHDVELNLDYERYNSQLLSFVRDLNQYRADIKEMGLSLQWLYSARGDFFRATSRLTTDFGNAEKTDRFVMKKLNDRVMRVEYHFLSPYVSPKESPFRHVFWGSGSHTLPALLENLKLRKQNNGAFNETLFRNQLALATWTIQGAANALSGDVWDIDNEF
Experimental: Binding of anti-TREM2 protein to human transferrin receptor was determined as follows: anti-human-Fab was immobilized on a CM5 chip, and the anti-TREM2 protein was captured. Full-length human TfR or human TfR apical domain at serial dilution (e.g., concentrations of 1-1,000 nM) was flowed over the chip (180 second association time) and then allowed to dissociate. Fitting was performed using a 1:1 binding model.

Binder	EC50 [1] [nM]	Kd [2] [nM]	Kd [3] [nM]	Kd [4] [nM]
ATV:TREM2 #5 (antibody, human IgG1, kappa, L234A L235A, Knob/hole heterodimeric IgG1; the second carries hole, LALA and LS; also called anti-TREM2/CH35.23.4) heavy 1: EVQLVESGGGLVQPGGSLRLSCAASGFTFTDFYMSWVRQAPGKGLEWVSVIRNKANAYTAGYNPSVKGRFTISRDNSKNTLYLQMNSLRAEDTAVYYCARLTYGFDYWGQGTLVTVSSASTKGPSVFPLAPSSKSTSGGTAALGCLVKDYFPEPVTVSWNSGALTSGVHTFPAVLQSSGLYSLSSVVTVPSSSLGTQTYICNVNHKPSNTKVDKKVEPKSCDKTHTCPPCPAPEAAGGPSVFLFPPKPKDTLMISRTPEVTCVVVDVSHEDPEVKFNWYVDGVEVHNAKTKPREEQYNSTYRVVSVLTVLHQDWLNGKEYKCKVSNKALPAPIEKTISKAKGQPREPQVYTLPPSRDELTKNQVSLWCLVKGFYPSDIAVEWESYGTEWSNYKTTPPVLDSDGSFFLYSKLTVSKEEWQQGFVFSCSVLHEALHSHYTQKSLSLSPGK heavy 2: EVQLVESGGGLVQPGGSLRLSCAASGFTFTDFYMSWVRQAPGKGLEWVSVIRNKANAYTAGYNPSVKGRFTISRDNSKNTLYLQMNSLRAEDTAVYYCARLTYGFDYWGQGTLVTVSSASTKGPSVFPLAPSSKSTSGGTAALGCLVKDYFPEPVTVSWNSGALTSGVHTFPAVLQSSGLYSLSSVVTVPSSSLGTQTYICNVNHKPSNTKVDKKVEPKSCDKTHTCPPCPAPEAAGGPSVFLFPPKPKDTLMISRTPEVTCVVVDVSHEDPEVKFNWYVDGVEVHNAKTKPREEQYNSTYRVVSVLTVLHQDWLNGKEYKCKVSNKALPAPIEKTISKAKGQPREPQVYTLPPSRDELTKNQVSLSCAVKGFYPSDIAVEWESNGQPENNYKTTPPVLDSDGSFFLVSKLTVDKSRWQQGNVFSCSVLHEALHSHYTQKSLSLSPGK light: DIVMTQTPLSLPVTPGEPASISCQSSKSLLHSTGKTYLNWYLQKPGQSPQLLIYWMSTRASGVPDRFSGSGSGTDFTLKISRVEAEDVGVYYCQQFLEYPFTFGQGTKVEIKRTVAAPSVFIFPPSDEQLKSGTASVVCLLNNFYPREAKVQWKVDNALQSGNSQESVTEQDSKDSTYSLSSTLTLSKADYEKHKVYACEVTHQGLSSPVTKSFNRGEC	3.6	5.7	2.4	620
ATV:TREM2 #2 (antibody, human IgG1, kappa, L234A L235A, Knob/hole heterodimeric IgG1; the second carries hole, LALA and LS; also called anti-TREM2/CH35.23.1.1) heavy 1: EVQLVESGGGLVQPGGSLRLSCAASGFTFTDFYMSWVRQAPGKGLEWVSVIRNKANAYTAGYNPSVKGRFTISRDNSKNTLYLQMNSLRAEDTAVYYCARLTYGFDYWGQGTLVTVSSASTKGPSVFPLAPSSKSTSGGTAALGCLVKDYFPEPVTVSWNSGALTSGVHTFPAVLQSSGLYSLSSVVTVPSSSLGTQTYICNVNHKPSNTKVDKKVEPKSCDKTHTCPPCPAPEAAGGPSVFLFPPKPKDTLMISRTPEVTCVVVDVSHEDPEVKFNWYVDGVEVHNAKTKPREEQYNSTYRVVSVLTVLHQDWLNGKEYKCKVSNKALPAPIEKTISKAKGQPREPQVYTLPPSRDELTKNQVSLWCLVKGFYPSDIAVEWESFGTEWSNYKTTPPVLDSDGSFFLYSKLTVSKEEWQQGFVFSCSVLHEALHSHYTQKSLSLSPGK heavy 2: EVQLVESGGGLVQPGGSLRLSCAASGFTFTDFYMSWVRQAPGKGLEWVSVIRNKANAYTAGYNPSVKGRFTISRDNSKNTLYLQMNSLRAEDTAVYYCARLTYGFDYWGQGTLVTVSSASTKGPSVFPLAPSSKSTSGGTAALGCLVKDYFPEPVTVSWNSGALTSGVHTFPAVLQSSGLYSLSSVVTVPSSSLGTQTYICNVNHKPSNTKVDKKVEPKSCDKTHTCPPCPAPEAAGGPSVFLFPPKPKDTLMISRTPEVTCVVVDVSHEDPEVKFNWYVDGVEVHNAKTKPREEQYNSTYRVVSVLTVLHQDWLNGKEYKCKVSNKALPAPIEKTISKAKGQPREPQVYTLPPSRDELTKNQVSLSCAVKGFYPSDIAVEWESNGQPENNYKTTPPVLDSDGSFFLVSKLTVDKSRWQQGNVFSCSVLHEALHSHYTQKSLSLSPGK light: DIVMTQTPLSLPVTPGEPASISCQSSKSLLHSTGKTYLNWYLQKPGQSPQLLIYWMSTRASGVPDRFSGSGSGTDFTLKISRVEAEDVGVYYCQQFLEYPFTFGQGTKVEIKRTVAAPSVFIFPPSDEQLKSGTASVVCLLNNFYPREAKVQWKVDNALQSGNSQESVTEQDSKDSTYSLSSTLTLSKADYEKHKVYACEVTHQGLSSPVTKSFNRGEC	4.9	5.4	2.4	650
ATV:TREM2 #3 (antibody, human IgG1, kappa, L234A L235A, Knob/hole heterodimeric IgG1; the second carries hole, LALA and LS; also called anti-TREM2/CH35.23.3) heavy 1: EVQLVESGGGLVQPGGSLRLSCAASGFTFTDFYMSWVRQAPGKGLEWVSVIRNKANAYTAGYNPSVKGRFTISRDNSKNTLYLQMNSLRAEDTAVYYCARLTYGFDYWGQGTLVTVSSASTKGPSVFPLAPSSKSTSGGTAALGCLVKDYFPEPVTVSWNSGALTSGVHTFPAVLQSSGLYSLSSVVTVPSSSLGTQTYICNVNHKPSNTKVDKKVEPKSCDKTHTCPPCPAPEAAGGPSVFLFPPKPKDTLMISRTPEVTCVVVDVSHEDPEVKFNWYVDGVEVHNAKTKPREEQYNSTYRVVSVLTVLHQDWLNGKEYKCKVSNKALPAPIEKTISKAKGQPREPQVYTLPPSRDELTKNQVSLWCLVKGFYPSDIAVEWESYGTEWVNYKTTPPVLDSDGSFFLYSKLTVTKEEWQQGFVFSCSVLHEALHSHYTQKSLSLSPGK heavy 2: EVQLVESGGGLVQPGGSLRLSCAASGFTFTDFYMSWVRQAPGKGLEWVSVIRNKANAYTAGYNPSVKGRFTISRDNSKNTLYLQMNSLRAEDTAVYYCARLTYGFDYWGQGTLVTVSSASTKGPSVFPLAPSSKSTSGGTAALGCLVKDYFPEPVTVSWNSGALTSGVHTFPAVLQSSGLYSLSSVVTVPSSSLGTQTYICNVNHKPSNTKVDKKVEPKSCDKTHTCPPCPAPEAAGGPSVFLFPPKPKDTLMISRTPEVTCVVVDVSHEDPEVKFNWYVDGVEVHNAKTKPREEQYNSTYRVVSVLTVLHQDWLNGKEYKCKVSNKALPAPIEKTISKAKGQPREPQVYTLPPSRDELTKNQVSLSCAVKGFYPSDIAVEWESNGQPENNYKTTPPVLDSDGSFFLVSKLTVDKSRWQQGNVFSCSVLHEALHSHYTQKSLSLSPGK light: DIVMTQTPLSLPVTPGEPASISCQSSKSLLHSTGKTYLNWYLQKPGQSPQLLIYWMSTRASGVPDRFSGSGSGTDFTLKISRVEAEDVGVYYCQQFLEYPFTFGQGTKVEIKRTVAAPSVFIFPPSDEQLKSGTASVVCLLNNFYPREAKVQWKVDNALQSGNSQESVTEQDSKDSTYSLSSTLTLSKADYEKHKVYACEVTHQGLSSPVTKSFNRGEC	4.6	3	2.2	1400
ATV:TREM2 #4 (antibody, human IgG1, kappa, L234A L235A, Knob/hole heterodimeric IgG1; the second carries hole and LS only, without LALA; also called CH3C.35.23.3 cisLALA) heavy 1: EVQLVESGGGLVQPGGSLRLSCAASGFTFTDFYMSWVRQAPGKGLEWVSVIRNKANAYTAGYNPSVKGRFTISRDNSKNTLYLQMNSLRAEDTAVYYCARLTYGFDYWGQGTLVTVSSASTKGPSVFPLAPSSKSTSGGTAALGCLVKDYFPEPVTVSWNSGALTSGVHTFPAVLQSSGLYSLSSVVTVPSSSLGTQTYICNVNHKPSNTKVDKKVEPKSCDKTHTCPPCPAPEAAGGPSVFLFPPKPKDTLMISRTPEVTCVVVDVSHEDPEVKFNWYVDGVEVHNAKTKPREEQYNSTYRVVSVLTVLHQDWLNGKEYKCKVSNKALPAPIEKTISKAKGQPREPQVYTLPPSRDELTKNQVSLWCLVKGFYPSDIAVEWESYGTEWVNYKTTPPVLDSDGSFFLYSKLTVTKEEWQQGFVFSCSVLHEALHSHYTQKSLSLSPGK heavy 2: not shown light: DIVMTQTPLSLPVTPGEPASISCQSSKSLLHSTGKTYLNWYLQKPGQSPQLLIYWMSTRASGVPDRFSGSGSGTDFTLKISRVEAEDVGVYYCQQFLEYPFTFGQGTKVEIKRTVAAPSVFIFPPSDEQLKSGTASVVCLLNNFYPREAKVQWKVDNALQSGNSQESVTEQDSKDSTYSLSSTLTLSKADYEKHKVYACEVTHQGLSSPVTKSFNRGEC		2	2.2	
